# Results taken from patent US20230125550A1 (ARCELLX, published 2023).
# T1: recombinant human CD123-Fc (human, UniProt P26951 19-305)
# T1 construct: not shown: Fc part of CD123-Fc
# T1 sequence: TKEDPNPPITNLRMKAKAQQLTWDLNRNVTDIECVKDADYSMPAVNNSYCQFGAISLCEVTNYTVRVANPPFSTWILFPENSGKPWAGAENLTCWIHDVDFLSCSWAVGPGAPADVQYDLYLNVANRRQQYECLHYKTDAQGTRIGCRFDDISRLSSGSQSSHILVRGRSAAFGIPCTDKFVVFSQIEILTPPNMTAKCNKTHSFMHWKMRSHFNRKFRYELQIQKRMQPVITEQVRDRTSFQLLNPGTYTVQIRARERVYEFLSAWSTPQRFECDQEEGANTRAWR
# Target: T1, recombinant human CD123-Fc
# Experiment: phage ELISA, captured CD123-Fc
# Procedure: Individual colonies containing phagemid from BCMA panning output were picked and phage were rescued in 96-well format using VCSM13 helper phage following standard protocols. To assay target binding by ELISA, 96-well plates were coated with 1.3 microg/ml goat anti-human IgG1-Fc antibody followed by incubation with 5 nM of recombinant human target (BCMA-Fc, CD123-Fc, AFP, or AFP123) or IgG1-Fc. 50 microl of rescued phage diluted 5× in ELISA blocking buffer was then added to each well. Binding was detected using an HRP-conjugated anti-M13 antibody and the ELISA ratio for each sequence is reported as the absorbance at 450 nm for target (i.e., BCMA-Fc, CD123-Fc, AFP, or AFP123) divided by that for IgG1-Fc averaged across all screened wells containing that clone.
row,Binder,ELISA_avg [ratio A450 target/IgG1-Fc]
1,"SEQ ID NO: 409 (designed binder, D domain, on phage) MGSWVEFHMRLDAIYERLDALGGSEAELAAFEKEIAAFESELQAYKGKGNPEVEWLRTAAANIRVELQAYRHN",9.1
2,"SEQ ID NO: 326 (designed binder, D domain, on phage) MGSWTEFSIRLEAIYDRLVALGGSEAELAAFEKEIAAFESELQAYKGKGNPEVEVLRTYAAFIRHELQAYRHN",10.2
3,"SEQ ID NO: 403 (designed binder, D domain, on phage) MGSWSEFNMRLDAIYERLTALGGSEAELAAFEKEIAAFESELQAYKGKGNPEVEWLRHSAALIRLELQAYRHN",11.4
4,"SEQ ID NO: 402 (designed binder, D domain, on phage) MGSWSEFNMRLDAIYERLTALGGSEAELAAFEKEIAAFESELQAYKGKGNPEVEWLRHSAARIRLELQAYRHN",13.7
5,"SEQ ID NO: 411 (designed binder, D domain, on phage) MGSWNEFVIRLDAIYERLLALGGSEAELAAFEKEIAAFESELQAYKGKGNPEVEYLRMAAANIRMELQAYRHN",16.6
6,"SEQ ID NO: 408 (designed binder, D domain, on phage) MGSWVEFYTRLDAIYGRLDALGGSEAELAAFEKEIAAFESELQAYKGKGNPEVEWLRQVAANIRMELQAYRHN",14.4
7,"SEQ ID NO: 324 (designed binder, D domain, on phage) MGSWYEFVIRLEAIEDRLWALGGSEAELAAFEKEIAAFESELQAYKGKGNPEVEVLRWYAADIRHELQAYRHN",6.4
8,"SEQ ID NO: 412 (designed binder, D domain, on phage) MGSWSEFYVRVDAIYARLSALGGSEAELAAFEKEIAAFESELQAYKGKGNPEVEKLRVWAANIRHELQAYRHN",14.7
9,"SEQ ID NO: 404 (designed binder, D domain, on phage) MGSWIEFNMRLDAIYERLVALGGSEAELAAFEKEIAAFESELQAYKGKGNPEVEWLRKVAANIRLELQAYRHN",11.4
10,"SEQ ID NO: 406 (designed binder, D domain, on phage) MGSWYEFAKRLDAIYERLVALGGSEAELAAFEKEIAAFESELQAYKGKGNPEVEWLRSSAANIREELQAYRHN",15.3
11,"SEQ ID NO: 325 (designed binder, D domain, on phage) MGSWTEFSIRLEAIYDRLVALGGSEAELAAFEKEIAAFESELQAYKGKGNPEVEVLRTYAANIRHELQAYRHN",11.9
12,"SEQ ID NO: 410 (designed binder, D domain, on phage) MGSWYEFAIRLDAIYERLHALGGSEAELAAFEKEIAAFESELQAYKGKGNPEVEYLRVWAANIRTELQAYRHN",25.5
13,"SEQ ID NO: 407 (designed binder, D domain, on phage) MGSWTEFYVRLDAIYERLDALGGSEAELAAFEKEIAAFESELQAYKGKGNPEVEWLRMVAANIRTELQAYRHN",16
14,"SEQ ID NO: 405 (designed binder, D domain, on phage) MGSWYEFHHRLDAIYERLLALGGSEAELAAFEKEIAAFESELQAYKGKGNPEVEWLRSSAANIRKELQAYRHN",11.9
15,"SEQ ID NO: 323 (designed binder, D domain, on phage) MGSWTEFYYRLEAIEDRLWALGGSEAELAAFEKEIAAFESELQAYKGKGNPEVEFLRVEAANIRDMLQAYRHN",7.5
16,"SEQ ID NO: 318 (designed binder, D domain, on phage) MGSWVEFWFRLEAIDSRLWALGGSEAELAAFEKEIAAFESELQAYKGKGNPEVEWLREEAAAIREDLQAYRHN",3.2
17,"SEQ ID NO: 370 (designed binder, D domain, on phage) MGSWYEFWDRLDALEDRLWALGGSEAELAAFEKEIAAFESELQAYKGKGNPEVEYLRDSAAFIREELQAYRHN",9.7
18,"SEQ ID NO: 364 (designed binder, D domain, on phage) MGSWVEFDQRLDAIYERLYALGGSEAELAAFEKEIAAFESELQAYKGKGNPEVEWLRDEAAEIREHLQAYRHN",10.5
19,"SEQ ID NO: 383 (designed binder, D domain, on phage) MGSWFEFQDRLWAIDNRLWALGGSEAELAAFEKEIAAFESELQAYKGKGNPEVEELRDHAAMIRWELQAYRHN",3.2
20,"SEQ ID NO: 329 (designed binder, D domain, on phage) MGSWVEFHDRLEAIEDRLYALGGSEAELAAFEKEIAAFESELQAYKGKGNPEVEWLREDAAYIRSILQAYRHN",4.6
21,"SEQ ID NO: 379 (designed binder, D domain, on phage) MGSWFEFWDRLEAIWERLDALGGSEAELAAFEKEIAAFESELQAYKGKGNPEVEELRREAAIIREDLQAYRHN",10.3

row,Binder,ELISA_avg [ratio A450 target/IgG1-Fc]
1,"SEQ ID NO: 331 (designed binder, D domain, on phage) MGSWVEFDQRLEAIYDRLYALGGSEAELAAFEKEIAAFESELQAYKGKGNPEVEWLREDAAQIRKWLQAYRHN",5.1
2,"SEQ ID NO: 321 (designed binder, D domain, on phage) MGSWSEFITRLEAIDDRLWALGGSEAELAAFEKEIAAFESELQAYKGKGNPEVEILREEAAEIRQHLQAYRHN",3.3
3,"SEQ ID NO: 369 (designed binder, D domain, on phage) MGSWFEFDDRLWAIENRLWALGGSEAELAAFEKEIAAFESELQAYKGKGNPEVEVLRDNAAWIREILQAYRHN",4.2
4,"SEQ ID NO: 363 (designed binder, D domain, on phage) MGSWVEFDMRLSAIWERLIALGGSEAELAAFEKEIAAFESELQAYKGKGNPEVEWLREDAAEIREFLQAYRHN",3.3
5,"SEQ ID NO: 380 (designed binder, D domain, on phage) MGSWFEFEDRLEAIYQRLDALGGSEAELAAFEKEIAAFESELQAYKGKGNPEVEWLRDEAAWIRSDLQAYRHN",5.5
6,"SEQ ID NO: 330 (designed binder, D domain, on phage) MGSWIEFYDRLEAIYDRLDALGGSEAELAAFEKEIAAFESELQAYKGKGNPEVEWLREDAAFIRSWLQAYRHN",7.5
7,"SEQ ID NO: 368 (designed binder, D domain, on phage) MGSWYEFYERLDAIEERLWALGGSEAELAAFEKEIAAFESELQAYKGKGNPEVEVLRDWAAWIREDLQAYRHN",8.4
8,"SEQ ID NO: 371 (designed binder, D domain, on phage) MGSWMEFVDRLDAIESRLWALGGSEAELAAFEKEIAAFESELQAYKGKGNPEVEWLRIEAAFIREELQAYRHN",5.8
9,"SEQ ID NO: 367 (designed binder, D domain, on phage) MGSWVEFYSRLDAIEDRLWALGGSEAELAAFEKEIAAFESELQAYKGKGNPEVEWLRIAAASIREDLQAYRHN",9.4
10,"SEQ ID NO: 382 (designed binder, D domain, on phage) MGSWYEFEDRLWAIDNRLWALGGSEAELAAFEKEIAAFESELQAYKGKGNPEVEELRVHAADIRDDLQAYRHN",4.9
11,"SEQ ID NO: 332 (designed binder, D domain, on phage) MGSWVEFHDRLEAIEDRLLALGGSEAELAAFEKEIAAFESELQAYKGKGNPEVEDLREYAAGIRWFLQAYRHN",3.3
12,"SEQ ID NO: 319 (designed binder, D domain, on phage) MGSWVEFWQRLEAIESRLWALGGSEAELAAFEKEIAAFESELQAYKGKGNPEVEFLREEAAEIRWELQAYRHN",7.7
13,"SEQ ID NO: 397 (designed binder, D domain, on phage) MGSWMEFEERLWAIDSRLWALGGSEAELAAFEKEIAAFESELQAYKGKGNPEVEWLRSEAAWIRMELQAYRHN",3.2
14,"SEQ ID NO: 381 (designed binder, D domain, on phage) MGSWFEFHDRLWAIDERLWALGGSEAELAAFEKEIAAFESELQAYKGKGNPEVEILREEAADIRLDLQAYRHN",3.5
15,"SEQ ID NO: 320 (designed binder, D domain, on phage) MGSWSEFWQRLEAIEDRLWALGGSEAELAAFEKEIAAFESELQAYKGKGNPEVEWLRENAAMIRDELQAYRHN",4.7
16,"SEQ ID NO: 316 (designed binder, D domain, on phage) MGSWTEFHDRLEAIDDRLWALGGSEAELAAFEKEIAAFESELQAYKGKGNPEVEYLREEAAQIRWELQAYRHN",5.8
17,"SEQ ID NO: 322 (designed binder, D domain, on phage) MGSWYEFETRLEAIYDRLWALGGSEAELAAFEKEIAAFESELQAYKGKGNPEVELLRVEAAEIREDLQAYRHN",3.2
18,"SEQ ID NO: 328 (designed binder, D domain, on phage) MGSWVEFHERLEAIEDRLMALGGSEAELAAFEKEIAAFESELQAYKGKGNPEVEYLREDAAFIRQLLQAYRHN",3.7
19,"SEQ ID NO: 372 (designed binder, D domain, on phage) MGSWDEFVDRLWAIEERLWALGGSEAELAAFEKEIAAFESELQAYKGKGNPEVEELRIQAAIIREALQAYRHN",6
20,"SEQ ID NO: 317 (designed binder, D domain, on phage) MGSWAEFEDRLWAIEDRLWALGGSEAELAAFEKEIAAFESELQAYKGKGNPEVEYLREEAAAIRFELQAYRHN",6.2
